Measurements as given in patent US20130095097A1 (EMERGENT PRODUCT DEVELOPMENT SEATTLE, published 2013).

B1: 2E12 monoclonal antibody (mAb) (antibody, V domains shown)
VH: QVQLKESGPGSVAPSQSLSITCTVSGFSLTGYGVNWVRQPPGKGLEWLGMIWGDGSTDYNSALKSRLSITKDNSKSQVFLKMNSLQTDDTARYYCARDGYSNFHYYVMDYWGQGTSVTVSS
VL: DIVLTQSPASLAVSLGQRATISCRASESVEYYVTSLMQWYQQKPGQPPKLLISAASNVESGVPARFSGSGSGTDFSLNIHPVEEDDIAMYFCQQSRKVPWTFGGGTKLEIK
notes: also called 2E12 mAb; 2E12 Mab
B2: 2E12 single-chain variable fragment (scFv) (scFv)
scFv: QVQLKESGPGSVAPSQSLSITCTVSGFSLTGYGVNWVRQPPGKGLEWLGMIWGDGSTDYNSALKSRLSITKDNSKSQVFLKMNSLQTDDTARYYCARDGYSNFHYYVMDYWGQGTSVTVSSGGGGSGGGGSGGGGSGGGGSDIVLTQSPASLAVSLGQRATISCRASESVEYYVTSLMQWYQQKPGQPPKLLISAASNVESGVPARFSGSGSGTDFSLNIHPVEEDDIAMYFCQQSRKVPWTFGGGTKLEIK
notes: Any tag on the free scFv used in SPR is not described; also called 2E12 scFv
B3: Interceptor X0124 (X0112 + X0113) (other)
chain 1: QVQLKESGPGSVAPSQSLSITCTVSGFSLTGYGVNWVRQPPGKGLEWLGMIWGDGSTDYNSALKSRLSITKDNSKSQVFLKMNSLQTDDTARYYCARDGYSNFHYYVMDYWGQGTSVTVSSGGGGSGGGGSGGGGSGGGGSDIVLTQSPASLAVSLGQRATISCRASESVEYYVTSLMQWYQQKPGQPPKLLISAASNVESGVPARFSGSGSGTDFSLNIHPVEEDDIAMYFCQQSRKVPWTFGGGTKLEIKSSSASTKGPSVFPLAPSSKSTSGGTAALGCLVKDYFPEPVTVSWNSGALTSGVHTFPAVLQSSGLYSLSSVVTVPSSSLGTQTYICNVNHKPSNTKVDKKVRTEPKSSDKTHTCPPCPSGAPELLGGPSVFLFPPKPKDTLMISRTPEVTCVVVDVSHEDPEVKFNWYVDGVEVHNAKTKPREEQYNSTYRVVSVLTVLHQDWLNGKEYKCKVSNKALPAPIEKTISKAKGQPREPQVYTLPPSRDELTKNQVSLTCLVKGFYPSDIAVEWESNGQPENNYKTTPPVLDSDGSFFLYSKLTVDKSRWQQGNVFSCSVMHEALHNHYTQKSLSLSPGK
chain 2: TVAAPSVFIFPPSDEQLKSGTASVVCLLNNFYPREAKVQWKVDNALQSGNSQESVTEQDSKDSTYSLSSTLTLSKADYEKHKVYACEVTHQGLSSPVTKSFNRGERTEPKSSDKTHTCPPCPSGAPELLGGPSVFLFPPKPKDTLMISRTPEVTCVVVDVSHEDPEVKFNWYVDGVEVHNAKTKPREEQYNSTYRVVSVLTVLHQDWLNGKEYKCKVSNKALPAPIEKTISKAKGQPREPQVYTLPPSRDELTKNQVSLTCLVKGFYPSDIAVEWESNGQPENNYKTTPPVLDSDGSFFLYSKLTVDKSRWQQGNVFSCSVMHEALHNHYTQKSLSLSPGK
notes: Monovalent anti-CD28 polypeptide heterodimer; After protein A alone the preparation also holds X0113 homodimer; also called Heterodimer 1 (X0124); X00124
B4: Interceptor X0132 (X0130 + X0131) (other)
chain 1: QVQLKESGPGSVAPSQSLSITCTVSGFSLTGYGVNWVRQPPGKGLEWLGMIWGDGSTDYNSALKSRLSITKDNSKSQVFLKMNSLQTDDTARYYCARDGYSNFHYYVMDYWGQGTSVTVSSGGGGSGGGGSGGGGSGGGGSDIVLTQSPASLAVSLGQRATISCRASESVEYYVTSLMQWYQQKPGQPPKLLISAASNVESGVPARFSGSGSGTDFSLNIHPVEEDDIAMYFCQQSRKVPWTFGGGTKLEIKSSSASTKGPSVFPLAPSSKSTSGGTAALGCLVKDYFPEPVTVSWNSGALTSGVHTFPAVLQSSGLYSLSSVVTVPSSSLGTQTYICNVNHKPSNTKVDKKVRTEPKSSDKTHTCPPCPSGAPELLGGPSVFLFPPKPKDTLMISRTPEVTCVVVDVSHEDPEVKFNWYVDGVEVHNAKTKPREEQYNSTYRVVSVLTVLHQDWLNGKEYKCKVSNKALPAPIEKTISKAKGQPREPQVYTLPPSRDELTKNQVSLTCLVKGFYPSDIAVEWESNGQPENNYKTTPPVLDSDGSFFLYSKLTVDKSRWQQGNVFSCSVMHEALHNHYTQKSLSLSPGKSRTVAAPSVFIFPPSDEQLKSGTASVVCLLNNFYPREAKVQWKVDNALQSGNSQESVTEQDSKDSTYSLSSTLTLSKADYEKHKVYACEVTHQGLSSPVTKSFNRGE
chain 2: TVAAPSVFIFPPSDEQLKSGTASVVCLLNNFYPREAKVQWKVDNALQSGNSQESVTEQDSKDSTYSLSSTLTLSKADYEKHKVYACEVTHQGLSSPVTKSFNRGERTEPKSSDKTHTCPPCPSGAPELLGGPSVFLFPPKPKDTLMISRTPEVTCVVVDVSHEDPEVKFNWYVDGVEVHNAKTKPREEQYNSTYRVVSVLTVLHQDWLNGKEYKCKVSNKALPAPIEKTISKAKGQPREPQVYTLPPSRDELTKNQVSLTCLVKGFYPSDIAVEWESNGQPENNYKTTPPVLDSDGSFFLYSKLTVDKSRWQQGNVFSCSVMHEALHNHYTQKSLSLSPGKSRASTKGPSVFPLAPSSKSTSGGTAALGCLVKDYFPEPVTVSWNSGALTSGVHTFPAVLQSSGLYSLSSVVTVPSSSLGTQTYICNVNHKPSNTKVDKKV
notes: also called Heterodimer 2 (X0132)
B5: Interceptor X0128 (X0120 + X0121) (other)
chain 1: QVQLKESGPGSVAPSQSLSITCTVSGFSLTGYGVNWVRQPPGKGLEWLGMIWGDGSTDYNSALKSRLSITKDNSKSQVFLKMNSLQTDDTARYYCARDGYSNFHYYVMDYWGQGTSVTVSSGGGGSGGGGSGGGGSGGGGSDIVLTQSPASLAVSLGQRATISCRASESVEYYVTSLMQWYQQKPGQPPKLLISAASNVESGVPARFSGSGSGTDFSLNIHPVEEDDIAMYFCQQSRKVPWTFGGGTKLEIKSSSASTKGPSVFPLAPSSKSTSGGTAALGCLVKDYFPEPVTVSWNSGALTSGVHTFPAVLQSSGLYSLSSVVTVPSSSLGTQTYICNVNHKPSNTKVDKKVRTEPKSSDKTHTCPPCPSGAPELLGGPSVFLFPPKPKDTLMISRTPEVTCVVVDVSHEDPEVKFNWYVDGVEVHNAKTKPREEQYNSTYRVVSVLTVLHQDWLNGKEYKCKVSNKALPAPIEKTISKAKGQPREPQVYTLPPSRDELTKNQVSLTCLVKGFYPSDIAVEWESNGQPENNYKTTPPVLDSDGSFFLYSKLTVDKSRWQQGNVFSCSVMHEALHNHYTQKSLSLSPGKSRASTKGPSVFPLAPSSKSTSGGTAALGCLVKDYFPEPVTVSWNSGALTSGVHTFPAVLQSSGLYSLSSVVTVPSSSLGTQTYICNVNHKPSNTKVDKKV
chain 2: TVAAPSVFIFPPSDEQLKSGTASVVCLLNNFYPREAKVQWKVDNALQSGNSQESVTEQDSKDSTYSLSSTLTLSKADYEKHKVYACEVTHQGLSSPVTKSFNRGERTEPKSSDKTHTCPPCPSGAPELLGGPSVFLFPPKPKDTLMISRTPEVTCVVVDVSHEDPEVKFNWYVDGVEVHNAKTKPREEQYNSTYRVVSVLTVLHQDWLNGKEYKCKVSNKALPAPIEKTISKAKGQPREPQVYTLPPSRDELTKNQVSLTCLVKGFYPSDIAVEWESNGQPENNYKTTPPVLDSDGSFFLYSKLTVDKSRWQQGNVFSCSVMHEALHNHYTQKSLSLSPGKSRTVAAPSVFIFPPSDEQLKSGTASVVCLLNNFYPREAKVQWKVDNALQSGNSQESVTEQDSKDSTYSLSSTLTLSKADYEKHKVYACEVTHQGLSSPVTKSFNRGE

Assays:
CD28 mIg [1] = biological target: T1, CD28 mIg (UniProt P10747 19-152); assay: SPR, CD28-mIgG immobilized, bivalent analyte model, first off rate kd (I)
T1 construct: Coated on ELISA plates and amine-coupled to a CM5 chip; also called CD28-mIgG; immobilized CD28
Protocol: (§1) Surface plasmon resonance (SPR) measurements were performed on a Biacore T100 SPR using HBS-P+ (GE Healthcare) as a running buffer. CD28-mIgG (25 μg/mL in 10 mM sodium acetate, pH 4.0) was directly immobilized onto a CM5 chip using standard amine coupling chemistry (Biacore Amine Coupling Kit, GE Healthcare), with final immobilization levels between 800 and 1900 Ru (resonance units). 2E12 binding domain constructs were injected at 25° C. or 37° C. for 150 seconds at a flow rate of 30 μl/min in a series of concentrations from 10 nM to 1 μM. Dissociation was monitored for 1200 seconds, and the surface was regenerated by injecting 50 mM NaOH for 60 seconds. Binding interactions with the surface were stable through at least 60 regeneration cycles. Data were analyzed using BiaEvaluation for the T100 software (version 2.0, GE Healthcare).
(§2) Surface plasmon resonance was used to measure binding of immobilized CD28 by 2E12 binding domain constructs. […] Binding kinetics of the bivalent 2E12 constructs (e.g., 2E12 mAb, FIGS. 27A-27B) to immobilized CD28 could not be fit to a 1:1 Langmuir binding model, but could be fit with high accuracy to a bivalent analyte binding model (Table 5). Equilibrium dissociation constants (1(D) could be calculated with high accuracy for each construct by fitting the observed response at saturation to a steady-state equilibrium model (Table 5).

CD28 mIg [2] = biological target: T1, CD28 mIg; assay: SPR, CD28-mIgG immobilized, bivalent analyte model, second off rate (avidity)
Protocol: as §1, §2

CD28 mIg [3] = biological target: T1, CD28 mIg; assay: SPR, CD28-mIgG immobilized, bivalent analyte model, second on rate (avidity); set-up: unit not given here
Protocol: as §1, §2

CD28 mIg [4] = biological target: T1, CD28 mIg; assay: SPR, CD28-mIgG immobilized; reference 2E12 SMIP (M0039)
Protocol: as §1, §2

CD28 mIg [5] = biological target: T1, CD28 mIg; assay: SPR, CD28-mIgG immobilized, kinetic KD, bivalent analyte model, initial binding at the first site only
Protocol: as §1, §2

CD28 mIg [6] = biological target: T1, CD28 mIg; assay: SPR, CD28-mIgG immobilized, bivalent analyte model, first on rate ka (I)
Protocol: as §1, §2

CD28 mIg [7] = biological target: T1, CD28 mIg; assay: SPR, CD28-mIgG immobilized, steady-state equilibrium KD
Protocol: as §1, §2

CD28 mIg [8] = biological target: T2, CD28 mIg (UniProt P10747 19-152); assay: SPR, CD28-mIgG immobilized, kinetic KD (kd (I)/ka (I))
Protocol: as §1, §2

CD28 mIg [9] = biological target: T2, CD28 mIg; assay: SPR, CD28-mIgG immobilized, 1:1 Langmuir model, ka (I)
Protocol: as §1, §2

CD28 mIg [10] = biological target: T2, CD28 mIg; assay: SPR, CD28-mIgG immobilized, 1:1 Langmuir model, kd (I)
Protocol: as §1, §2

CD28 mIg [11] = biological target: T2, CD28 mIg; assay: SPR, CD28-mIgG immobilized, steady-state equilibrium KD
Protocol: as §1, §2

CD28 on Jurkat T cells = biological target: T3, CD28 on Jurkat T cells (UniProt P10747 19-220, limits assumed); assay: flow cytometry on Jurkat cells
T3 construct: whole, on cells; also called Jurkat cells; Jurkat T cell lines

Row | Binder | koff (CD28 mIg [1]) [s⁻¹] | kd (II) (CD28 mIg [2]) [s⁻¹] | ka (II) (CD28 mIg [3]) | fold affinity difference against the 2E12 SMIP (CD28 mIg [4]) [fold] | Kd (CD28 mIg [5]) [nM] | kon (CD28 mIg [6]) [M⁻¹ s⁻¹] | Kd (CD28 mIg [7]) [nM] | Kd (CD28 mIg [8]) [nM] | kon (CD28 mIg [9]) [M⁻¹ s⁻¹] | koff (CD28 mIg [10]) [s⁻¹] | Kd (CD28 mIg [11]) [nM] | binding result (CD28 on Jurkat T cells)
1 | B1 | 0.00104 | 0.0127 | 0.00367 | 2 | 6 | 176000 | 11.4 |  |  |  |  | 
2 | B2 |  |  |  |  |  |  |  | 9.69 | 348000 | 0.00338 | 39.6 | 
3 | B3 |  |  |  |  |  |  |  | 35.2 | 141000 | 0.00497 | 104 | 
4 | B4 |  |  |  |  |  |  |  | 43.7 | 149000 | 0.0065 | 134 | binds
5 | B5 |  |  |  |  |  |  |  |  |  |  |  | binds
